For five molecules, binding result and Kd results are on record in PMC11530851.

This series deals with SKIV2L (hSKI complex subunit);TTC37 (hSKI complex subunit);WDR61 (hSKI complex subunit) (human;human;human, UniProt Q15477;Q6PGP7;Q9GZS3 1-1246;1-1564;1-305, ||). In words: EMSA; 2 mM Mg2+; 25 mM Hepes-KOH pH 7.6, 2 mM Mg acetate, 50 mM NaCl, 1 mM DTT, 0.1 mg/ml BSA, 1 nM substrate, 37 C 30 min; 0.7% agarose gel at 4 C.

As to CCCCACCACCATCACTTAAAAAAAAAA (ssDNA) [ss poly(A) DNA], the binding result is “binds”.

B1: dsRNA (ss poly(A) + Css27) (dsRNA)
RNA 1: CCCCACCACCAUCACUUAAAAAAAAAA
RNA 2: UUUUUUUUUUAAGUGAUGGUGGUGGGG
Consider B1, for which the binding result is reported as “no binding”.
Same read-out and setting: in the case of CCCCACCACCAUCACUUAAAAAAAAAA (ssRNA) [ss poly(A)] it was “binds”.
As to AGCGTATCCGTTCAGTTG (ssDNA) [Non-TEL18], the Kd was determined as 30 nM.
On the same count and under the same terms, in the case of GGTTAGGGTTAGGGTTAG (ssDNA) [TEL18] it was 12 nM.

For orientation: Kd means the constant that tells how readily two partners part at equilibrium. Lower therefore signals tighter binding.
